Results as given in US20220204643A1 (published 2022).
Where two headings read alike, the source gives them in different places.

Columns and labels:
[1] = molecular target: T1, DIX domain containing 1, transcript variant 2 (human, UniProt Q155Q3 220-683); assay: protein array
T1 construct: on protein array; also called DIXDC1
T1 sequence: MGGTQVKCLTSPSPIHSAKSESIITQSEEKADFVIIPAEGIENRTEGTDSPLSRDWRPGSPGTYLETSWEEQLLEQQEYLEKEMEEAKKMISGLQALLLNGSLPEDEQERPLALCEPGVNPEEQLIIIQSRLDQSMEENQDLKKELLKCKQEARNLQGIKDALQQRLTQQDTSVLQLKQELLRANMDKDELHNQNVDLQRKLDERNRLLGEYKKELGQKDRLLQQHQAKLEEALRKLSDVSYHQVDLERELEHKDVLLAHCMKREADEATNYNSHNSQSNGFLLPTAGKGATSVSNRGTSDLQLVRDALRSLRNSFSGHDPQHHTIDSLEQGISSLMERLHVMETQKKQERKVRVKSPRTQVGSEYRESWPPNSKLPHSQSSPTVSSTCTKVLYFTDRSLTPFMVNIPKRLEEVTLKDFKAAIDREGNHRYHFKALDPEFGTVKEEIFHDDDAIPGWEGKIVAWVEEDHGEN

cancer/testis antigen 1A = molecular target: T2, cancer/testis antigen 1A (human, UniProt P78358 1-180); assay: protein array
T2 construct: on protein array; also called CTAG1A
T2 sequence (P78358 whole entry): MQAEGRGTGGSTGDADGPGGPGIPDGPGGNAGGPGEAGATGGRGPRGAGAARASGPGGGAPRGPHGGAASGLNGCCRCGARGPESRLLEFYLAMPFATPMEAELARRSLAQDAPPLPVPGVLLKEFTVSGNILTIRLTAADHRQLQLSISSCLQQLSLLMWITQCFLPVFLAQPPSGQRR

[2] = molecular target: T3, aarF domain containing kinase 5 (human, UniProt Q3MIX3 1-580); assay: protein array
T3 construct: on protein array; also called ADCK5
T3 sequence (Q3MIX3 other isoform, or with tags, fused parts or gaps limits assumed): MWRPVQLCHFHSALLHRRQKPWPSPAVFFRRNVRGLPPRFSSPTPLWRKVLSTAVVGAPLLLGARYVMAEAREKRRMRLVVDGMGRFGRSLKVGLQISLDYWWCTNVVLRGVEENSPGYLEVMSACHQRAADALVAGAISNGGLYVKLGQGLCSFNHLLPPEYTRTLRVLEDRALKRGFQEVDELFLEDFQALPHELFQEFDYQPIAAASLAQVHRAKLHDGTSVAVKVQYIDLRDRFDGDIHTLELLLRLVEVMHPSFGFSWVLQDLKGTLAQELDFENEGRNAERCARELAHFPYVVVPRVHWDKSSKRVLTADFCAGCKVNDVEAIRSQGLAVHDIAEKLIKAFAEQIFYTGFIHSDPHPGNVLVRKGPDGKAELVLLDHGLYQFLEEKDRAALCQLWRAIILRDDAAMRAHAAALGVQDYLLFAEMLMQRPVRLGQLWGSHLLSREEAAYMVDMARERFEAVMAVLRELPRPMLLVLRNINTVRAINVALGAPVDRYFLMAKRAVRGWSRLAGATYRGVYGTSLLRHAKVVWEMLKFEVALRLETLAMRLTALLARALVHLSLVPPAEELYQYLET

[3] = molecular target: T4, quinoid dihydropteridine reductase, transcript variant 1 (human, UniProt P09417 2-244); assay: protein array
T4 construct: on protein array; also called QDPR
T4 sequence: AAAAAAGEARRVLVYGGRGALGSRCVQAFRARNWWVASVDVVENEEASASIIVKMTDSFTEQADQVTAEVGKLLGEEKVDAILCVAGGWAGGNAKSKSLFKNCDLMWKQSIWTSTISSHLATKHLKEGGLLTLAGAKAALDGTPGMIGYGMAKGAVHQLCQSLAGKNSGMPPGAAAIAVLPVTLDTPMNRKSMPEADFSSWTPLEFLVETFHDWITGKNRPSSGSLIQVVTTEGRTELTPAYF

[4] = molecular target: T5, quinoid dihydropteridine reductase, transcript variant 1 (human, UniProt P09417 2-244)
T5 construct: HuProt array protein, full-length recombinant from yeast; also called QDPR
T5 sequence: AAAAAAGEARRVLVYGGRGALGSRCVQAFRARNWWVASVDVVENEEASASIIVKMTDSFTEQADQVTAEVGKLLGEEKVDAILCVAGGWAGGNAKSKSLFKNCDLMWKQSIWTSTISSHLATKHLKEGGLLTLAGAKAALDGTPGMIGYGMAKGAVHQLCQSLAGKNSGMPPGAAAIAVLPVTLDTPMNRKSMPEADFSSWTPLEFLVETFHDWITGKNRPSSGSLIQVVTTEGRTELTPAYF

[5] = molecular target: T6, Jupiter microtubule associated homolog 2 (human, UniProt Q9H910 1-190)
T6 construct: also called HN1L
T6 sequence: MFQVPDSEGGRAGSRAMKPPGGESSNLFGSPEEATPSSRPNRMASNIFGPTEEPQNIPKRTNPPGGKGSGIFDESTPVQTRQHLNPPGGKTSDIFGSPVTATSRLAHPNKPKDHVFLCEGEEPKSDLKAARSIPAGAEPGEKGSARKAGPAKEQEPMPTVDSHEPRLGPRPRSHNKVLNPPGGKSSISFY

[6] = molecular target: T7, ubiquilin 1, transcript variant 2 (human, UniProt Q9UMX0 2-589)
T7 construct: HuProt array protein, full-length recombinant from yeast; also called UBQLN1
T7 sequence (Q9UMX0 other isoform, or with tags, fused parts or gaps mutant limits assumed): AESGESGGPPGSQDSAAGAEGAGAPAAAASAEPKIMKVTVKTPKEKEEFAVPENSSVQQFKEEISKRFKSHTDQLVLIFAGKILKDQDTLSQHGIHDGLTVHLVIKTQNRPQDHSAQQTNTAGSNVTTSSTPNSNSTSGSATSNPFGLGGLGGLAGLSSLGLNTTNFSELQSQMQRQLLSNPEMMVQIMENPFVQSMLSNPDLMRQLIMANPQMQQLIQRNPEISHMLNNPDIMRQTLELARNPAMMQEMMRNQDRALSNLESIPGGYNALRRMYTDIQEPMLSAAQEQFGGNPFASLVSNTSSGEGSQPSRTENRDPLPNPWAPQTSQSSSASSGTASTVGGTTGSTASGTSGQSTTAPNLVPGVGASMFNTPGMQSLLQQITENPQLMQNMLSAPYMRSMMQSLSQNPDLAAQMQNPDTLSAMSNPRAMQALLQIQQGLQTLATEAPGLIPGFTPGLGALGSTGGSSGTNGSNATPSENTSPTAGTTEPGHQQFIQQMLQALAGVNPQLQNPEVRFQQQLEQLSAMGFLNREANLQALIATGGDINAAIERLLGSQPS

[7] = molecular target: T8, ubiquilin 1, transcript variant 2 (human, UniProt Q9UMX0 2-589); assay: protein array
T8 construct: on protein array; also called UBQLN1
T8 sequence (Q9UMX0 other isoform, or with tags, fused parts or gaps mutant limits assumed): as above

[8] = molecular target: T9, influenza virus NS1A binding protein (human, UniProt Q9Y6Y0 1-642); assay: protein array
T9 construct: on protein array; also called IVNS1ABP
T9 sequence: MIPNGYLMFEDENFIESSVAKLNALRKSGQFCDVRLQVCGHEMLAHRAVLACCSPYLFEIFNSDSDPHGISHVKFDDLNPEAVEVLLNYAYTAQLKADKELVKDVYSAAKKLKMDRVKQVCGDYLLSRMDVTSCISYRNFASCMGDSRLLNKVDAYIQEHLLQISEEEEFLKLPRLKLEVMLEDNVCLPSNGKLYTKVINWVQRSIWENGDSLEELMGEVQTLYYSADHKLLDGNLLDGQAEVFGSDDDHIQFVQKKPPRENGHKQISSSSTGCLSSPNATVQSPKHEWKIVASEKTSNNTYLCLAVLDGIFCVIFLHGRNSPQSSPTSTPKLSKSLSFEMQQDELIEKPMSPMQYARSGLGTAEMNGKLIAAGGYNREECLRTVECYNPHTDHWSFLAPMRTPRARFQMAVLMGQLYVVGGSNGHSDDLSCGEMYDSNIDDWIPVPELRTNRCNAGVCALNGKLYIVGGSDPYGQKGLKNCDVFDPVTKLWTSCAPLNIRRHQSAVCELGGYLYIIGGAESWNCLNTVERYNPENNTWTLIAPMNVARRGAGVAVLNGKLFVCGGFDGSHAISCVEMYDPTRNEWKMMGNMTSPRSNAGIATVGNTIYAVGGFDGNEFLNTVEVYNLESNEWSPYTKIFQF

[9] = molecular target: T10, kelch like ECH associated protein 1, transcript variant 1 (human, UniProt Q14145 1-624); assay: protein array
T10 construct: on protein array; also called KEAP1
T10 sequence (Q14145 whole entry, change not shown): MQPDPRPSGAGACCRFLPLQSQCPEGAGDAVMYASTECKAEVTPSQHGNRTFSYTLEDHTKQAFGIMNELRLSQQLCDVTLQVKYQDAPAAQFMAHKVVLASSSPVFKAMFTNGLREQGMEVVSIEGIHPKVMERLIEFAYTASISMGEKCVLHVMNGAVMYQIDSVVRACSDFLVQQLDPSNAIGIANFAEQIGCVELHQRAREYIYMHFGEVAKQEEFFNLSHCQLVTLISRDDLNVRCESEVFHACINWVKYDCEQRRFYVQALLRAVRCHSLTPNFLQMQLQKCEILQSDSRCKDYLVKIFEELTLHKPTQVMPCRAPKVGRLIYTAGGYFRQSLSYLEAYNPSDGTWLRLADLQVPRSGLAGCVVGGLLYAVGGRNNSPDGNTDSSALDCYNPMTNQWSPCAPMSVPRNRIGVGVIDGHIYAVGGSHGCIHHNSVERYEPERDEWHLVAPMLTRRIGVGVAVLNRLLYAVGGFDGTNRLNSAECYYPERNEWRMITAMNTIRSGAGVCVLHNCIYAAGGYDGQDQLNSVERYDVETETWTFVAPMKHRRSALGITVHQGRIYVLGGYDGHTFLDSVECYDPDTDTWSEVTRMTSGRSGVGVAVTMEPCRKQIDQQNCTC

B1: TTES1010 (antibody, V domains shown)
VH: EVQLVESGGGLVQPGGSLRLSCAASGFTFSSYSMNWVRQAPGKGLEWVSYISSSSSTIYYADSVKGRFTISRDNAKNSLYLQMNSLRAEDTAVYYCASLLGGDPDYWGQGTLVTVSS
VL: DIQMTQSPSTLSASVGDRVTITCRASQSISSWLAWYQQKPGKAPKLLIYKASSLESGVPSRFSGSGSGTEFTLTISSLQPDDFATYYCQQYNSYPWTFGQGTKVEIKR
notes: VH/VL tied via antigen in summary, not by name in this stretch
binding result [1]: binds

B2: TBLA1012 (antibody, V domains shown)
VH: LLQLVESGGGVVQPGRSLRLSCAASGFTFTRHGFHWVRQAPGKGLEWVAVISSDGRKIHYTDSVKGRFVISRDDSDNTVYLHMNSLRLGDTALYYCARDSGGTPGPYWGQGTLVTVSS
VL: DVVMTQSPLSLPVTLGQPASISCRSSQSLVHSDGNTYLNWFQQRPGQSPRRLIYMVSNRDSGVPDRFSGSGSGTDFTLKISRVEAEDVGVYYCLQGTHWPPTIGQGTKVEIE
notes: VH/VL only
binding result (cancer/testis antigen 1A): binds

B3: TTES1009 (antibody, V domains shown)
VH: EVQLVESGGGLVQPGGSLRLSCAASGFTFSSYEMNWVRQAPGKGLEWVSYISSSGSTIYYADSVKGRFTISRDNAKNSLYLQMNSLRAEDTAVYYCARRGFYYYYGMDVWGQGTTVTVSS
VL: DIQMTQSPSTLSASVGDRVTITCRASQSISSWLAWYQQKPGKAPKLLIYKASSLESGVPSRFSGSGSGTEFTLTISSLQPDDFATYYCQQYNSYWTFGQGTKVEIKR
notes: as for B1
binding result [2]: binds

B4: TLUS1001 (antibody, V domains shown)
VH: QVQLQESGPGLVKPSETLSLTCTVSGDSISSNYWSWIRQPPGKGLEWIGYIYYSGSTNYNPSLKSRVTISVDTSKNQFSVKLSSVTAADTAVYYCARYGDYSFDPWGQGTLVTVSS
VL: not shown
notes: as for B1
binding result [3]: binds

B5: TLUS1001 (antibody, V domains shown)
VH: QVQLQESGPGLVKPSETLSLTCTVSGDSISSNYWSWIRQPPGKGLEWIGYIYYSGSTNYNPSLKSRVTISVDTSKNQFSVKLSSVTAADTAVYYCARYGDYSFDPWGQGTLVTVSS
VL: not shown
notes: detected with anti-human IgG Fc
binding result [4]: binds

B6: TOVA1008 (antibody, V domains shown)
VH: ELQLVESGGGLVQPGGSLRLSCAASGFTFSSYWMSWVRQAPGKGLEWVANINQDGGEKYYVDSVKGRFTISRDNAKNSLYLQMNSLRAEDTAVYYCAHYYYDSSGYYQNAEYFQYWGQGTLVTVSS
VL: DIQMTQSPPSLSASVGDRVTITCQASQDISNYLNWYQQKPGKTPKLLIYAASTLETGVPSRFSGSGSGTDFTFTINSLQPEDIATYYCQQYDSLPLTFGGGTKVEIKR
binding result [5]: binds

B7: TMEL1034 (antibody, V domains shown)
VH: QLQLQESGPGLVKPWETLSLSCTVSGGSISSSFFYWGWIRQPPGKGLQWIGNIHYTGSTYYNPSLKSRITMSVDTSKNQFSLKLSSVTAADTAVYYCARHRVGDSPGLHYWGQGTLVTVSS
VL: SYELTQPPSVSVSPGQTARITCSGDALPKKYAFWYQQKSGQAPVLVIYEDSKRPSGIPERFSGSSSGTMATLTISGAQVEDESDYYCYSTDSSGNVWVFGGGTKLTVLG
notes: as for B1
binding result [3]: binds

B8: TMEL1034 (antibody, V domains shown)
VH: QLQLQESGPGLVKPWETLSLSCTVSGGSISSSFFYWGWIRQPPGKGLQWIGNIHYTGSTYYNPSLKSRITMSVDTSKNQFSLKLSSVTAADTAVYYCARHRVGDSPGLHYWGQGTLVTVSS
VL: SYELTQPPSVSVSPGQTARITCSGDALPKKYAFWYQQKSGQAPVLVIYEDSKRPSGIPERFSGSSSGTMATLTISGAQVEDESDYYCYSTDSSGNVWVFGGGTKLTVLG
notes: as for B5
binding result [4]: binds

B9: TKIC1002 (antibody, V domains shown)
VH: PVQLQESGPGLVKPSETLSLTCTVSGGSISSYYWSWIRQPPGKGLEWIGYLFYSGSTNYNPSLKSRVTISVDTSKNQFSLKLGSVTAADTAVYYCARHRIFGLDVWGQGTTVTVSS
VL: EIVLTQSPGTLSLSLGERATLSCRASQSVSGSHLAWYQQKPGQAPRLLIYDASSRATGIPDRFSGSGSGTEFTLTISRLEPEDFAVYYCQQYGSSPLWFGQGTKVEIK
notes: VH/VL only
binding result [2]: binds

B10: TBRE1030 (antibody, V domains shown)
VH: QVQLQESGPGLVKPSQTLSLTCTVSGGSISSGGYYWSWIRQHPGKGLEWIGYIYYSGSTYYNPSLKSRVTISVDTSKNQFSLKLSSVTAADTAVYYCARDLSCSSTSCHDAFDIWGQGTMVTVSS
VL: not shown
notes: as for B5
binding result [6]: binds

B11: TBRE1030 (antibody, V domains shown)
VH: QVQLQESGPGLVKPSQTLSLTCTVSGGSISSGGYYWSWIRQHPGKGLEWIGYIYYSGSTYYNPSLKSRVTISVDTSKNQFSLKLSSVTAADTAVYYCARDLSCSSTSCHDAFDIWGQGTMVTVSS
VL: not shown
notes: VH/VL only
binding result [7]: binds

B12: TTES1001 (antibody, V domains shown)
VH: PVQLVQSGAEVKKPGSSVQVSCKGSGGTFSEYGISWLRQAPGQGLEWIGGIIPVLGIPNYAQKFRGRVTITADESTGSAYMEVSSLRSEDTAVYYCAREGLRLARGWFHPWGQGTLVTVTS
VL: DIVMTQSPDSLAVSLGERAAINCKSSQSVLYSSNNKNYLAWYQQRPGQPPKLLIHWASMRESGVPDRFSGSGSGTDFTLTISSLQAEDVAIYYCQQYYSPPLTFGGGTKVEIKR
notes: as for B1
binding result [1]: binds

B13: TTHY1004 (antibody, V domains shown)
VH: PVQLQESGPGLVKPSQTLSLTCTVSGGSISSGTYYWSWIRQPAGKGLEWIGRIYASGSTNYNPSLKSRVTISVDTSKNQFSLKLTSVTAADTAVYYCARYSGSYPLGFDYWGQGTLVTVSS
VL: DIQMTQSPSSLSASVGDRVTITCRASQSISTYLNWYQQKPGMAPKLLIYAASTLQSGVPSRFSGSGSATDYTLTISSLQPEDFATYYCQQSYNTPLTFGGGTKVDIKR
notes: as for B1
binding result (cancer/testis antigen 1A): binds

B14: TCER1004 (antibody, V domains shown)
VH: VVQLVESGGGLVQPGGSLRLSCAASGFTFSSYSMNWVRQAPGKGLEWLSYVSSSGSTMYYADSVKGRFTISRDTAKNSLFLQMNSLRAEDTAVYYCAKGGPLRPFDIWGQGTLVTVSS
VL: VIQMTQSPTSLSASVGDRVTITCRASQSISSYLNWYQQKLGKAPKLLIYAASSLQSGVPSRFSGSGSGTDFTLTISSLQPEDFATYYCQQSYSTSLTFGGGTKVEIKR
notes: VH/VL only
binding result [8]: binds

B15: THNS1008 (antibody, V domains shown)
VH: QVQLQESGPGLVKPSQTLSLTCAVSGGSISSGGYPWSWIRQPPGKGLEWIGYISYSGSTDYNPSLKSRVTISLDTSSNQFSLNLSSLTAADTAVYYCARGAAFYYGMDVWGQGTTVTVSS
VL: DIQMTQSPSSLSASVGDRVTITCRASQSISTYLNWYQQKPGKAPKLLIYVASSLQSGVPSRFSGSGSGTDFTLTISGLQPEDFATYYCQQSYSTPYTFGQGTKLEIKR
notes: VH/VL only
binding result [9]: binds

B16: TCOL1007 (antibody, V domains shown)
VH: PVQLVESGGGVVQPGRSLRLSCAASGFTFSNYGMHWVRQAPGKGLEWVAVISDDGNDKDNADSVKGRFTISRDNSKNTLYLRMNSLRREDTAVYYCARDGFDYWGQGTLVTVSS
VL: DIVMTQTPLSMPVTPGEPASISCRSSQSLLDSDDGKTYLDWYLQKPGQSPQLLIYTVSYRASGVPDRFSGSGSGTDFTLKISRVEAEDVGVYYCMQRIEFPFTFGPGTKVDIKR
notes: VH/VL only
binding result [9]: binds

B17: TTES1011 (antibody, V domains shown)
VH: PVTLRESGPALVKPTQTLTLTCTFSGFSLSTSGMCVSWIRQPPGKALEWLARIDWDDDKYYSTSLKTRLTISKDTSKNQVVLTMTNMDPVDTATYYCARMQIVATTQTYYYYYGMDVWGQGTTVTVSS
VL: PAVLTQPPSVSGAPGQRVTISCTGSSSNIGAGYDVHWYQQLPGTAPKLLIYGNSNRPSGVPDRFSGSKSGTSASLAITGLQAEDEADYYCQSYDSSLSGSGVFGGGTKLTVLG
binding result [5]: binds
